Results as given in patent US20260184773A1, “THERAPEUTIC SINGLE DOMAIN ANTIBODY” (priority 2021, published 2026).

Tests used:
[1] = system: tSTAT3, pSTAT3 and PD-L1 in MDA-MB-231 cells; assay: Immunoblot (slot blot) of tSTAT3, pSTAT3 and PD-L1; format: cell-based, human; details: MDA-MB-231, 3, 6 and 24 hours, β-actin normalized, 50-100 ug/ml
[2] = system: PANC-1 tumors; details: PANC-1 xenograft, intraperitoneal for 14 days
[3] = system: ENBOV (Ebola) in HFF; format: cell-based, Ebola virus
[4] = system: ENBOV (Ebola) in HeLa; format: cell-based, Ebola virus
[5] = system: Zika in Vero; format: cell-based, Zika virus
[6] = target: HIV-1 RT (Human immunodeficiency virus type 1 group M subtype B, UniProt P04585); details: read-out: Binding affinity (KD)
[7] = system: MDA-MB-231 cells; assay: Cell penetration by immunofluorescence/confocal microscopy; format: cell-based, human

Molecule: Cc1ccc(S(=O)(=O)OCC(=O)Nc2ccc(C(=O)O)c(O)c2)cc1 [S3I-201, reference compound]
- Levels of tSTAT3, pSTAT3 and PD-L1 [1]: decreased

Molecule: Nc1ccn([C@@H]2O[C@H](CO)[C@@H](O)C2(F)F)c(=O)n1 [Gemcitabine, gemcitabine, reference compound]
- % Inhibition of Control, Day 12 ([2]; Day 12): 19.51%
- % Inhibition of Control, Day 15 ([2]; Day 15): 23.17%
- % Inhibition of Control, Day 19 ([2]; Day 19): 23.26%
- % Inhibition of Control, Day 22 ([2]; Day 22 (end of the study)): 14.93%

B1: SBT-106 (protein)
VHH: EVQLVESGGGSVQAGGSLRLSCAASVYSYNTNCMGWFRQAPGKEREGVAVIYAAGGLTYYADSVKGRFTISQENGKNTVYLTMNRLKPEDTAMYYCAAKRWCSSWNRGEEYNYWGQGTQVTVSS
- Comment [3]: Does not inhibit Ebola virus
- EC50 [μM] [3]: No
- EC50 [4]: 3490 nM
- EC50 [μM] [5]: No

B2: SBT-107: anti-HIV-1 Reverse Transcriptase (RT) VHH, SEQ ID NO. 4 (protein)
VHH: MGDVQLVESGGDSVRAGGSLQLSCKASGYTYNSRVDIRSMGWFRQYPGKEREGVATINIRNSVTYYADSVKGRFTISQDNAKNTVYLQMNALKPEDTAMYYCALSDRFAAQVPARYGIRPSDYNYWGEGTLVTVSSSSGLE
modifications: Camelid
- Kd [6]: 3.85 nM
- Intracellular staining/localization of VHH [7]: no intracellular staining
